Results taken from paper PMC9482650, “Quantitative fragmentomics allow affinity mapping of interactomes” (Nature Communications, 2022).
Positions count from the first letter of the chain named.

Key:
Assay in all cases: holdup assay
Parameters in all cases: key: below the threshold = too weak to quantify, mostly under pKd 3.1 to 4
IL16_1, Q14005 = target: IL16_1, Q14005
Inadl_10, Q8NI35 = target: Inadl_10, Q8NI35
LNX1_1, Q8TBB1 = target: LNX1_1, Q8TBB1
LNX1_3, Q8TBB1 = target: LNX1_3, Q8TBB1
PTPN3, P26045 = target: PTPN3, P26045
SNTG1, Q9NSN8 = target: T1, SNTG1, Q9NSN8
T1 sequence (Q9NSN8 52-150, limits assumed, looked up): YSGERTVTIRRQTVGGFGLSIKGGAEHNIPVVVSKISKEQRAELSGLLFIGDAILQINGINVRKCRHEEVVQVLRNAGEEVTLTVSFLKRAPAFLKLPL

MPP7, Q5T2T1 = target: T2, MPP7, Q5T2T1
T2 sequence (Q5T2T1 134-230, limits assumed, looked up): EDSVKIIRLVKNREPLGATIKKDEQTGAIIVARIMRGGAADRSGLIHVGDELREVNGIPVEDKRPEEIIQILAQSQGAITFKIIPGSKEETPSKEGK

DLG1_1, Q12959 = target: DLG1_1, Q12959
DLG4_2, P78352 = target: DLG4_2, P78352
GRID2IP_2, A4D2P6 = target: GRID2IP_2, A4D2P6
MAGI2_4, Q86UL8 = target: MAGI2_4, Q86UL8
FRMPD4, Q14CM0 = target: FRMPD4, Q14CM0
APBA1_2, Q02410 = target: T3, APBA1_2, Q02410
T3 sequence (Q02410 742-832, limits assumed, looked up): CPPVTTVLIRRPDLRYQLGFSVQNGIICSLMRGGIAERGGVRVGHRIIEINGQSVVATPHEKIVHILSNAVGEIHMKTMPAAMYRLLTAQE

NHERF3_1, Q5T2W1 = target: T4, NHERF3_1, Q5T2W1
T4 sequence (Q5T2W1 4-100, limits assumed, looked up): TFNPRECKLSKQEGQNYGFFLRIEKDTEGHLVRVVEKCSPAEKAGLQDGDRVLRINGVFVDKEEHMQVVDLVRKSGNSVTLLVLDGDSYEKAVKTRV

GRIP2_6, Q9C0E4 = target: GRIP2_6, Q9C0E4
PDZRN3_1, Q9UPQ7 = target: T5, PDZRN3_1, Q9UPQ7
T5 sequence (Q9UPQ7 244-349, limits assumed, looked up): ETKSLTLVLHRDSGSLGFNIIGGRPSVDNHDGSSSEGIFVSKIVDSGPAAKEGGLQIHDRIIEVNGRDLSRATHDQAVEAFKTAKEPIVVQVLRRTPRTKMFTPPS

SCRIB_3, Q14160 = target: SCRIB_3, Q14160
ARHGAP21, Q5T5U3 = target: T6, ARHGAP21, Q5T5U3
T6 sequence (Q5T5U3 45-169, limits assumed, looked up): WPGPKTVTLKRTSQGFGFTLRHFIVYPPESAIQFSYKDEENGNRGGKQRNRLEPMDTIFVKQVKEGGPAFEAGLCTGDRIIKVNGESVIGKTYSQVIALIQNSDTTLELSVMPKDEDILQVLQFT

GRIP2_3, Q9C0E4 = target: GRIP2_3, Q9C0E4
APBA2_2, Q99767 = target: T7, APBA2_2, Q99767
T7 sequence (Q99767 654-744, limits assumed, looked up): T3 sequence (Q02410 742-832, limits assumed, looked up) with R10K, R15K, P59A, H65Q, I66A, A70S, Y84F, A89G

IL16_3, Q14005 = target: IL16_3, Q14005
PCLO, Q9Y6V0 = target: T8, PCLO, Q9Y6V0
T8 sequence (Q9Y6V0 4491-4600, limits assumed, looked up): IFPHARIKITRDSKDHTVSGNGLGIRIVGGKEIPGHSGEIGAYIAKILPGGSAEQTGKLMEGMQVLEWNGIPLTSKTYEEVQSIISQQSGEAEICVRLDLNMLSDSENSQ

LNX2_3, Q8N448 = target: T9, LNX2_3, Q8N448
T9 sequence (Q8N448 463-564, limits assumed, looked up): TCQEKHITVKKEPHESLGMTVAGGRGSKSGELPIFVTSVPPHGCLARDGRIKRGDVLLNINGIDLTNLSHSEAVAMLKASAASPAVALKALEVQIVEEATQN

TJP1_3, Q07157 = target: TJP1_3, Q07157
MPP2, Q14168 = target: T10, MPP2, Q14168
T10 sequence (Q14168 180-250, limits assumed, looked up): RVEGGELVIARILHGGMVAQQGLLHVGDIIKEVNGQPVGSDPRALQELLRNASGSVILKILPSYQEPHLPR

GRIP2_4, Q9C0E4 = target: GRIP2_4, Q9C0E4
MAGI2_5, Q86UL8 = target: MAGI2_5, Q86UL8
GRIP2_5, Q9C0E4 = target: GRIP2_5, Q9C0E4
[1] = plain residues with an end cap or a label only (N-terminal biotin on a linker: ado-ado)
[2] = plain residues with an end cap or a label only (N-terminal biotin on a linker: (peg)3)

Measured: pKd

GRIP2_6, Q9C0E4, sequence (Q9C0E4 648-740): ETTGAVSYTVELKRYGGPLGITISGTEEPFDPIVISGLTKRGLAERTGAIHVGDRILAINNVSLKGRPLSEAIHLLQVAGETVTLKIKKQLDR
DLG4_2, P78352, sequence (P78352 155-259): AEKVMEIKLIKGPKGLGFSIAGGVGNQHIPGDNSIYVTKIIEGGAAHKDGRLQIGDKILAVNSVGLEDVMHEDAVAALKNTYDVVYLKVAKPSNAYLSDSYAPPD
MAGI2_4, Q86UL8, sequence (Q86UL8 772-865): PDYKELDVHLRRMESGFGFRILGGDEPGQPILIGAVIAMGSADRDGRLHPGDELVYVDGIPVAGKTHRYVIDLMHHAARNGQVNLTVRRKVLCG
LNX1_3, Q8TBB1, sequence (Q8TBB1 500-596): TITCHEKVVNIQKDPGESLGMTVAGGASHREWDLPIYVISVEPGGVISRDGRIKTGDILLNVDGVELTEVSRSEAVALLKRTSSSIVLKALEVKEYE
MAGI2_5, Q86UL8, sequence (Q86UL8 915-1017): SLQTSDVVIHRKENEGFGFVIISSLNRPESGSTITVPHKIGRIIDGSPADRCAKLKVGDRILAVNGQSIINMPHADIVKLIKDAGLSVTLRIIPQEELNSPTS
PTPN3, P26045, sequence (P26045 505-587): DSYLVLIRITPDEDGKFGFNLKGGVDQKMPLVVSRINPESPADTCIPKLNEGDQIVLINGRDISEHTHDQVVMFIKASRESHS
LNX1_1, Q8TBB1, sequence (Q8TBB1 261-371): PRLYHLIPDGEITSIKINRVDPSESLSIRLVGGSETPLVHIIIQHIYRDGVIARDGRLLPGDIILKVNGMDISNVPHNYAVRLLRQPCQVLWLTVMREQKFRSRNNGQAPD
Inadl_10, Q8NI35, sequence (Q8NI35 1673-1763): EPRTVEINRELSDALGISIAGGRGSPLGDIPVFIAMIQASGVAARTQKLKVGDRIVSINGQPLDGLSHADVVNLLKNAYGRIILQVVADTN
GRID2IP_2, A4D2P6, sequence (A4D2P6 272-370): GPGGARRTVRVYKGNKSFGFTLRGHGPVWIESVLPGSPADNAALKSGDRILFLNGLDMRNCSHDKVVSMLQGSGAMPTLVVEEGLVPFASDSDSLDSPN
FRMPD4, Q14CM0, sequence (Q14CM0 67-160): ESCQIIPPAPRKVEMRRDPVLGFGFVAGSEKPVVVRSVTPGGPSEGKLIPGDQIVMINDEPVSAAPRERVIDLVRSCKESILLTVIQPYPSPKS
IL16_1, Q14005, sequence (Q14005 210-306): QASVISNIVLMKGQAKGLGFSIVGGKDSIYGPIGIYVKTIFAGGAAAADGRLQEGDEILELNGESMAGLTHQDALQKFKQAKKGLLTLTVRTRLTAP
GRIP2_5, Q9C0E4, sequence (Q9C0E4 544-642): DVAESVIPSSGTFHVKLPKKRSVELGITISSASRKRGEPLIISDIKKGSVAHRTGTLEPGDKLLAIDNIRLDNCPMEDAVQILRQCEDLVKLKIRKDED
SCRIB_3, Q14160, sequence (Q14160 999-1103): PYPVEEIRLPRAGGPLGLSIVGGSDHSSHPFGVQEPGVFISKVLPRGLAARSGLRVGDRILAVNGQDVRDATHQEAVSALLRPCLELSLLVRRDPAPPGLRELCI
TJP1_3, Q07157, sequence (Q07157 416-512): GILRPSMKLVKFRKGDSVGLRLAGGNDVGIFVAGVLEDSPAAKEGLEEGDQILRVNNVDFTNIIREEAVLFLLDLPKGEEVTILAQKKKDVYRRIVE
GRIP2_4, Q9C0E4, sequence (Q9C0E4 446-548): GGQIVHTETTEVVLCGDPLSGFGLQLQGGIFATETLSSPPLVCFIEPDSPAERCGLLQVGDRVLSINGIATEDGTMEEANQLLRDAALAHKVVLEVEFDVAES
GRIP2_3, Q9C0E4, sequence (Q9C0E4 238-339): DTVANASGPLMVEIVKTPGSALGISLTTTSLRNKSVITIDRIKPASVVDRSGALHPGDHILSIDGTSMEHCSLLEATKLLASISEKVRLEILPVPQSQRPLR
IL16_3, Q14005, sequence (Q14005 1107-1207): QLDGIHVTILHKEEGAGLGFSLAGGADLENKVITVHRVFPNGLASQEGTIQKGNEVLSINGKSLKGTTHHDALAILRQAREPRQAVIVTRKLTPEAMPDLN

B1: TRIP6, Q15654 (peptide)
chain: ELSATVTTDC
4.31: PTPN3, P26045; [1]
4.24: SCRIB_3, Q14160; [1]
3.91: DLG4_2, P78352; [1]
3.95: LNX1_1, Q8TBB1; [1]
4.27: ARHGAP21, Q5T5U3; [1]
3.59: IL16_3, Q14005; [1]
3.65: MPP7, Q5T2T1; [1]
3.69: GRID2IP_2, A4D2P6; [1]
below the threshold: IL16_1, Q14005; [1] | Inadl_10, Q8NI35; [1] | LNX1_3, Q8TBB1; [1] | DLG1_1, Q12959; [1] | MAGI2_4, Q86UL8; [1] | FRMPD4, Q14CM0; [1] | APBA1_2, Q02410; [1] | NHERF3_1, Q5T2W1; [1] | GRIP2_6, Q9C0E4; [1] | PDZRN3_1, Q9UPQ7; [1] | GRIP2_3, Q9C0E4; [1] | APBA2_2, Q99767; [1] | PCLO, Q9Y6V0; [1] | LNX2_3, Q8N448; [1] | TJP1_3, Q07157; [1] | MPP2, Q14168; [1] | GRIP2_4, Q9C0E4; [1] | MAGI2_5, Q86UL8; [1] | GRIP2_5, Q9C0E4; [1]
3.48: SNTG1, Q9NSN8; [1]

B2: PLEKHA1, Q9HB21 (peptide)
chain: DDASLPVSDV
5.09: SNTG1, Q9NSN8; [1]
3.89: IL16_1, Q14005; [1] | APBA1_2, Q02410; [1]
3.5: ARHGAP21, Q5T5U3; [1]
3.58: PTPN3, P26045; [1]
4.91: LNX1_1, Q8TBB1; [1]
4.1: SCRIB_3, Q14160; [1]
below the threshold: Inadl_10, Q8NI35; [1] | LNX1_3, Q8TBB1; [1] | MPP7, Q5T2T1; [1] | DLG1_1, Q12959; [1] | DLG4_2, P78352; [1] | MAGI2_4, Q86UL8; [1] | FRMPD4, Q14CM0; [1] | NHERF3_1, Q5T2W1; [1] | GRIP2_6, Q9C0E4; [1] | PDZRN3_1, Q9UPQ7; [1] | GRIP2_3, Q9C0E4; [1] | APBA2_2, Q99767; [1] | IL16_3, Q14005; [1] | PCLO, Q9Y6V0; [1] | LNX2_3, Q8N448; [1] | TJP1_3, Q07157; [1] | MPP2, Q14168; [1] | GRIP2_4, Q9C0E4; [1] | MAGI2_5, Q86UL8; [1] | GRIP2_5, Q9C0E4; [1]
4.35: GRID2IP_2, A4D2P6; [1]

B3: SARS-Cov2-N, P0DTC9 (peptide)
chain: QQSMSSADSTQA
3.88: LNX2_3, Q8N448; [2]
below the threshold: IL16_1, Q14005; [2] | Inadl_10, Q8NI35; [2] | LNX1_1, Q8TBB1; [2] | LNX1_3, Q8TBB1; [2] | PTPN3, P26045; [2] | SNTG1, Q9NSN8; [2] | MPP7, Q5T2T1; [2] | DLG1_1, Q12959; [2] | DLG4_2, P78352; [2] | GRID2IP_2, A4D2P6; [2] | MAGI2_4, Q86UL8; [2] | FRMPD4, Q14CM0; [2] | APBA1_2, Q02410; [2] | NHERF3_1, Q5T2W1; [2] | GRIP2_6, Q9C0E4; [2] | PDZRN3_1, Q9UPQ7; [2] | SCRIB_3, Q14160; [2] | ARHGAP21, Q5T5U3; [2] | GRIP2_3, Q9C0E4; [2] | APBA2_2, Q99767; [2] | IL16_3, Q14005; [2] | PCLO, Q9Y6V0; [2] | TJP1_3, Q07157; [2] | MPP2, Q14168; [2] | GRIP2_4, Q9C0E4; [2] | MAGI2_5, Q86UL8; [2] | GRIP2_5, Q9C0E4; [2]

B4: KCNA7, Q96RP8 (peptide)
chain: PPGKHLVTEV
4.76: DLG1_1, Q12959; [1]
3.7: Inadl_10, Q8NI35; [1]
3.5: IL16_1, Q14005; [1]
5.11: DLG4_2, P78352; [1]
4.74: PTPN3, P26045; [1]
4.35: SNTG1, Q9NSN8; [1]
4.73: MAGI2_5, Q86UL8; [1]
4.48: MAGI2_4, Q86UL8; [1]
4.37: GRID2IP_2, A4D2P6; [1]
4.56: SCRIB_3, Q14160; [1]
4.17: APBA1_2, Q02410; [1]
below the threshold: LNX1_3, Q8TBB1; [1] | MPP7, Q5T2T1; [1] | FRMPD4, Q14CM0; [1] | NHERF3_1, Q5T2W1; [1] | GRIP2_6, Q9C0E4; [1] | PDZRN3_1, Q9UPQ7; [1] | ARHGAP21, Q5T5U3; [1] | GRIP2_3, Q9C0E4; [1] | APBA2_2, Q99767; [1] | IL16_3, Q14005; [1] | PCLO, Q9Y6V0; [1] | LNX2_3, Q8N448; [1] | TJP1_3, Q07157; [1] | MPP2, Q14168; [1] | GRIP2_4, Q9C0E4; [1] | GRIP2_5, Q9C0E4; [1]
4.22: LNX1_1, Q8TBB1; [1]
